Reference: US20020103136

What was measured:
[1] = tested on: Ac-4-trans-L-HypSSChgQSP(HCAP)-VIN
[2] = tested on: Ac-SChgQSS-gammaAbu-(HCAP)-dAc-VIN
[3] = tested on: Ac-SSChgQ-SP-(HCAP)-(dAc)-VIN
[4] = tested on: Ac-AbuSSChgQ-SP-(HCAP)-(dAc)-VIN
[5] = tested on: Ac-(4-trans-L-Hyp)SSChgQ-SPheol-(dAc)-VIN
[6] = tested on: Ac-4-trans-L-Hyp-SSChgQ-SS-(HCAP)-(dAc)-VIN
[7] = tested on: Ac-SSChgQ-SSP-(HCAP)-dAc-VIN
[8] = tested on: Ac-4-trans-L-HypSSChgQS-cyclohexylalaninol-(dAc)-VIN
[9] = tested on: Ac-SChgQSS(PIP)-(HCAP)-dAc-VIN
[10] = tested on: Ac-SChgQ-SS(4-trans-L-Hyp)-(HCAP)-dAc-VIN
[11] = tested on: N-hydroxyacetyl-AbuSSChgQ-SP-(HCAP)-(dAc)-VIN
[12] = tested on: Ac-SChgQSS-Sar-(HCAP)-dAc-VIN
[13] = tested on: Ac-SChgQ-SP-(HCAP)-(dAc)-VIN
[14] = tested on: Ac-AbuSSChgQ-S-(HCAP)-VIN

## free prostate specific antigen (PSA)
[1]
  Time to 50% Substrate Cleavage by York PSA: 8 min
[2]
  Time to 50% Substrate Cleavage by York PSA: 12 min
[3]
  Time to 50% Substrate Cleavage by York PSA: 30 min
Ac-SChgQS-Abu-(HCAP)-VIN
  Time to 50% Substrate Cleavage by York PSA: 60 min
[4]
  Time to 50% Substrate Cleavage by York PSA: 18 min
[5]
  Time to 50% Substrate Cleavage by York PSA: 25 min
[6]
  Time to 50% Substrate Cleavage by York PSA: 17 min
[7]
  Time to 50% Substrate Cleavage by York PSA: 8 min
Ac-SChgQ-SSP-(HCAP)-VIN
  Time to 50% Substrate Cleavage by York PSA: 8 min
[8]
  Time to 50% Substrate Cleavage by York PSA: 10 min
[9]
  Time to 50% Substrate Cleavage by York PSA: 22 min
Ac-SChgQSS(HCAP)-dAc-VIN
  Time to 50% Substrate Cleavage by York PSA: 12 min
[10]
  Time to 50% Substrate Cleavage by York PSA: 7 min
[11]
  Time to 50% Substrate Cleavage by York PSA: 11 min
[12]
  Time to 50% Substrate Cleavage by York PSA: 13 min
[13]
  Time to 50% Substrate Cleavage by York PSA: 13 min
[14]
  Substrate cleavage by York PSA at 1 hour (printed in the column 'Time to 50% Substrate Cleavage by York PSA (Min)'): 1 HOUR = 28%
